# Measured values taken from the DeepSol protein solubility set.
# Experiment: soluble on expression in E. coli; label from the status in PepcDB or PDB records
row,Sequence,soluble on expression in E. coli
1,MKRFNVLKYIRTTKANIQTIAMPLTTKPLSLKINAALFDVDGTIIISQPAIAAFWRDFGKDKPYFDAEHVIHISHGWRTYDAIAKFAPDFADEEYVNKLEGEIPEKYGEHSIEVPGAVKLCNALNALPKEKWAVATSGTRDMAKKWFDILKIKRPEYFITANDVKQGKPHPEPYLKGRNGLGFPINEQDPSKSKVVVFEDAPAGIAAGKAAGCKIVGIATTFDLDFLKEKGCDIIVKNHESIRVGEYNAETDEVELIFDDYLYAKDDLLKW,soluble
2,MKRIFVQNRELVVPGTLLAQGPYKNGRGTFREGSRIYSTVIGLVDIKGNTIRVIPLEGPYIPEVGDNVIGKIVDVKFSSWVVDIGAPYLANLKIQDFTDEKIDLLRTDLRKFFDIGDIIYGKVKAITEVNNIDLTTKGMPFNGGPLKGGQIVKITPSRVPRVIGRGGSMINMIKKLTMTRIIVGQNGWIWVNGKNEALEKLAIEAILKIDRESHTKGLTDRIKSLLLSRLQELKEKGVIEEIPELEEEPQEETEVNNNDGETRRT,soluble
3,MKRISPLRSLVACRWTNRARKRLAAVGLASICLLSACAPKFDKGEEVVQDKGSKQQEAVIPKYNIADSYYRVILPFKPSGARGEVVNDLNTRLDVDEFETGLMRLATEQFPSDEYLFQEGQYLDSETVGKWLARKKTTRQLKEEKMKPEDNLGLNPPISDTGTNEQKNKQSPIYLASILEHDYLVKIDNDKVKLGGIAIGLALNSVHYYSTEQGYPREVKIKDDVIEREGKRIAAEVLKRLRSMKGLGSVPITIALYKQAPRSSVVPGHFFAVAHVDGGDSTIDEWEAVNEEYYLFPSDEAEENHRDDWLKFNNFKSDVEDFFPNYTGIVGRGLYVNDQLQKLTINITMPFYGKAEVIGFTQYVTGLVMEKFPDYITVNVYIASAGQPESLIVRQAKADEPFVHIYQ,not soluble
4,MKRLTERVIIMKGAGEMATGVACRLHRSGFRRILMLEAPSPLAVRRGVSFCEAIHNGRKSVEGIEAVRIENGSALADAWGKGEIPLLADPQGDAVRRMEPDILIDATIAKRNLGIAITDAPLVIALGPGFFAGRDCHLVIETNRGHNLGRLIACGEAEPNTGIPGNIGGYTRERVLRAPADGHFTTEKVIGDQVSKGDVVGIVGTNTVTASIDGILRGLIRPGTHVTTGLKIGDIDPRGDTAYCHTISEKARALGGSVLEAILTVYNQLEHHHHHH,not soluble
5,MKRQKRDRLERAQSQGYKAGLNGRSSEHCPYQSMDARSCWLGGWRDARDDKQSGLFKLEHHHHHH,not soluble
6,MKRQLILEDGTVLIGTGFGGEIEKSGEVVFTTGMTGYQETLSDPSYCGQIVTFTYPLIGNYGINRDDFESIHPSVNGLIVNEICDHPSNFRNEISLNDYLKERNIPGLAGIDTRKLTRKIRQYGTLRGRLCNMDADVEYIVSQLKATVFTDHVKRVSTKDPYPSPGRGHRVVLVDFGMKHGILRELNKRDCDVIVVPYNTTAEEILRLSPDGIMLSNGPGDPKDVPEAIEMLKDIIGKVPLFGICLGHQLFALASGANTSKLKFGHRGLNHPVKNIATGKVAITSQNHGYAVEEESVENTELEITHVALNDGTVEGLRHKKFPAFTVQYHPEASAGPEDANDLFEDFLTMIENFKKEGEELCQNA,not soluble
7,MKRVVLYIKDKCPHCKDAQRYLDSKGIKYRLCNAKMERGRKELDALGARSVPVLKIGDRLMIGWNHTNFERIYSSKD,not soluble
8,MKSHQFSTALCQNTTESNGQPLRFPSPAKLNLFLYINGKFPNGYHELQTLFQFLDFGDWLDISIREQDNQIVLTPEIPNLKTENNLIYRAAKLLQEKANIQLGANIHLDKILPMGGGVGGGSSNAATALVSLNYLWQANLSIDELAKLGLTLGADVPIFVHGHAAFAEGVGEKITYCEPAEKWFVILKPDDSISTAVIFQDPNLPRNTPKKSLAQLLSEPYKNDCEKVVINHYSNVEKALNWLLQYAPARLTGTGACVFAEFDHEAEAQAVFRQKPEAFFGFVAKGLNVSPLHAMLKQLSSTHTHRQSKPEVLLEHHHHHH,soluble
9,MKSRIVYGPILSRRLGRSLGIDVIKNTGSKKNCNYDCIYCQLGHVELKLGSPEDVKEAVTPKEVSESFEKFYKDVEGLDYITFSGTCEPSLNLSLGEMIQSIREISGVPVCVITNSSLMGREDVRKNLSQADLVVATLVSGIEKTWRKIHRPAPCINFQEIIEGLRELAKAGDGKKLALEVMFLESETGEPLNSTDEEVDCLIKTIRYICPDEIEVLTISRPPAEKWVKPVSEERLREIADRFISEFGAEKVRLVLKGKKKKAKVLHRDLEEEVYALLLRRPCTFEQTWQGLSIDPESLRPVLEKLLAEGKIEEIGSKNSVYYRAK,not soluble
10,MKSSDRLFTGRSENYSKFRPSYPVGIVKMLTDKYGLKKEMVIADIGCGTGILARMFLENGNKVYCIDPNGEMLKFAKDELSSFGNAIIVRGSAENTGLEDHSVNVISAGQSFHWFDTDKAKVEFRRILTAPYMVVLIWNDRDIDDGFTAEYEKIVSAYGKNYQGTGSTGLPPDTIPQFFNWAYDYYQYQNYQELDLEGLKGRYLSTFYSITQEYPKFQAAMKALETAFNAFSVDGKVRIRYITKVFVGKLNPLEHHHHHH,soluble
11,MKSSLSLLLLTSALSNFALATEIKSGGETSTTKEGANAFSMPAANLPMAKRLDFSVGNSFFRNPWVPAPASTDARDGLGPLFNTNGCQNCHIKDGRGHPPEPNDTQAVSMLVRLSIPAVTEQQKAIYAVNGVVPEPTYGGQLQDFSLPDQKPEGRIHITYDEVVVTFADGTPVALRKPNLKILDLAYGEMHPDVQMSARVAPPMIGLGLLEAIPDATLLQWADPEDRDGDGISGRVNQVRDVRTGEMAIGRFGWKAGQPNIMQQNAAAFNGDLGLTSHLFPQENCTEKQTLCRDLPNGGSPEVSDNILDFVEFYAQHLAVPVRRNVQDPQVQLGEKLFAQAGCQSCHKTNVLTQELAERPALSKQRIQPYTDLLLHDMGEGLSDGRPEALASAREWRTAPLWGIGYTQEVNGHTYFLHDGRARNVLEAVLWHGGEAQASRDKVLQFDKAQREALVAFLNSL,not soluble
12,MKSTSMNTNKRFQNVNQWKLHASAAAYLAGWKVVRLLPEPVAYRLFSWAAVIASRRGRGMDQLRRNLTRVVGAESVDRALVKRSMQSYARYWCEAFRLSVIARDPDVIHRVDAHAVGVEQVNPHSPMIIVLPHSGNWDLIGMYFVKKVGTFTTVAERVKPESLFRAFVNYRRSLGFEVLPLTGSETSPYSVLLQRVREGRTVCLLGERDLTSHGVEVEFFGETTRMPAGAVKLALDSGAPLHVAHTWFEGDDWGLSLSEPVEITDVKSGVQAIAQIMEKNIKAHPQDWHLLQPLWINDLDRRRYESGLQPKND,not soluble
13,MKTADELAKLRRASELITDSMLATIAAARAGSTKLEIIEQLRREETNRGLHFEYCLLTLGASHNRAGSPQAWAEGEILSIDSGGNYHGYIGDLCRMGVLGEPDAELEDLLAEVERIQQAAFAKVRAGVLGSEMIVAAEAELKASPSAAFTDFFCHGMGLITHEAPFLMTNHPVAYEGIDADKPLEAGNVISVETTMLHPKRGFIKLEDTLAITDKGYEMFGDRGRGLEHHHHHH,soluble
14,MKTAIVYYSQHHGNTKKLLDAIAIVDDVTLIDVTKHTAYDLNEFNLIGFASGIYFQKFSKKVLDFAKNNLPFNKKVFFIYTCGIKFPSYTVAIRAVVKEKNADIVGEYGCPGFDTFGPFKIVGGIRKGRPNENDIAKAVQFFRGILKLEHHHHHH,soluble
15,MKTEKEEAEEEPFVIRPYLKSELAHKYNPHLPLIYAMQKLRGWIRNNKELYDAMYSGGEGKNDHAYSSRQVRLIVKFLDEP,not soluble
16,MKTFPLQSLTIIEAQQKQFALVDSICRHFPGSEFLTGGDLGLTPGLNQPRVTQRVEQVLADAFHAQAAALVQGAGTGAIRAGLAALLKPGQRLLVHDAPVYPTTRVIIEQMGLTLITVDFNDLSALKQVVDEQQPDAALVQHTRQQPQDSYVLADVLATLRAAGVPALTDDNYAVMKVARIGCECGANVSTFSCFKLFGPEGVGAVVGDADVINRIRATLYSGGSQIQGAQALEVLRGLVFAPVMHAVQAGVSERLLALLNGGAVPEVKSAVIANAQSKVLIVEFHQPIAARVLEEAQKRGALPYPVGAESKYEIPPLFYRLSGTFRQANPQSEHCAIRINPNRSGEETVLRILRESIASI,soluble
